# B1: TRV NGS910 (nucleic acid)
# DNA: ATGCGACGTGGTTGGAGATTAAACCGACTCCGACGAAAGTGCTATCATGCCTCCCCGATTATGTGATGTTTTCTGCCCTGCTGGGCGGAGCATTCTCGGGTTGATACACCTTGAATCCTTCATCCTTGGACCTCAGGTCCCCCGGTCTAAGCCGCTTGGAATACGACAGGGTTATTTTCCAATCTTCTCCTTTCTACTTTCATGAGTCCTATTCATGAAAAGGGTCTGTGCTGCCCCTTCCTTCTTGGAGAATCTGCGCGGCGGTCTTTCCGTCTCTCGAAAAGCGCAGATGCAGCATGCTGGAACCGGTGAAGAAAACAGTTCTTTGTGGAAACTTAGAGCAGACATCGAAACAGCTGTAGTGACCTCACAGTAGCAGCGGAACCCCCTCCTGGTAACAGGAGCCTCTGCGGCCAAAAGCCCCGTGGATAAGATCCACTGCTGTGAGCGGTGCAACCCCAGCACCCTGGTTCGATGGTTGTTCTCTGTGGAACCAGAGAATGGTCTTTCTCAAGCCCTCCAGTAGAGAAGCCAAGAATGTCCTGAAGGTACCCCGCATGCGGGATCTGATCAGGAGACCAATCGTCAGTGCTTTACACTGGCGCTTTGGTTTAAAAACTGTCACAGCTTCTCCAAACCAAGTGGTCTTGGTTTTCACTTTTATCAAACTGTTTC
# B2: VHEV (nucleic acid)
# DNA: AATTCCTTCTTCCTTTCTCCTTGGACCTCGGTCCCCCGGTCTAAGCCGCTCGGAATATGACAGGGTTATTTTCACCTCTTCTCTCTTCTACTTCATAGTGTTCTATACTATGAAAGGGTATGTGTCGCCCCTTCCTTCTTGGAGAACGTGCGTGGCGGTCTTTCCGTCTCTCGAAAAACGTGCGTGCGACATGCAGAGTAACGCAAAGAAAGCAGTTCTTGGTCTAGCTCTGGTGCCCACAAGAAAACAGCTGTAGCGACCACACAAAGGCAGCGGAAACCCCCTCCTGGTAACAGGAGCCTCTGCGGCCAAAAGCCACGTGGATAAGATCCACCTTTGTGTGCGGTGCAACCCCAGCACCCTGGTTTCTTGGTGACACCTTAGTGAACCCTCGAATGGCAATCTCAAGCGCCTCTGTAGGAAAGCCAAGAATGTCCAGGAGGTACCCCTTCCTCATGGAGGGATCTGACCTGGAGACACATCACACGTGCTATACACTTGTGCTTGTGTTTAAAAATTGTCACAGCTTTCCCAAACCAAGTGGTCTTGGTTTTCCCTTAACTTCGAAAAGTCACTATGGCCTGCAAACATGGATACCCAGACGTGTGCCCT
# B3: SAV P-113 (nucleic acid)
# DNA: GGAGATCTAAGTCAACCGACTCCGACGAAACTACCATCATGCCTCCCCGATTATGTGATGCTTTCTGCCCTGCTGGGTGGAGCATCCTCGGGTTGAGAAAACCTTCTTCCTTTTTCCTTGGACCCCGGTCCCCCGGTCTAAGCCGCTTGGAATAAGACAGGGTTATCTTCACCTCTTCCTTCTTCTACTTCATAGTGTTCTATACTATGAAAGGGTATGTGTCGCCCCTTCCTTCTTTGGAGAACACGCGCGGCGGTCTTTCCGTCTCTCGAAAAGCGCGTGTGCGACATGCAGAGAACCGTGAAGAAAGCAGTTTGCGGACTAGCTTTAGTGCCCACAAGAAAACAGCTGTAGCGACCACACAAAGGCAGCGGACCCCCCCTCCTGGCAACAGGAGCCTCTGCGGCCAAAAGCCACGTGGATAAGATCCACCTTTGTGTGCGGCACAACCCCAGTGCCCTGGTTTCTTGGTGACACTTCAGTGAAAACGCAAATGGCGATCTGAAGCGCCTCTGTAGGAAAGCCAAGAATGTCCAGGAGGTACCCCTTCCCTCGGGAAGGGATCTGACCTGGAGACACATCACATGTGCTTTACACCTGTGCTTGTGTTTAAAAATTGTCACAGCTTTCCCAAACCAAGTGGTCTTGGTTTTCACTCTTTAAACTGATTTCACT
# Test system: HEK293 cells
# Assay type: cell-based, human
# Conditions: luminescence from secreted Gluc in supernatant 24 hours after transfection of HEK293 cells; circular RNA encoding Gluc with the named IRES (UTR truncated to 675 nt)
row,Molecule,Expression
1,B1,3.84E+07
2,B2,1.74E+08
3,B3,4.37E+07
